Assay results reported in EP4624492A1.
Read-outs that look alike come from different tables or passages of the source. Blank lines part the entries; values can stand above or below the binder they belong to.

Key:
[1] = molecular target: human CCR8 (human) (UniProt P51685); assay: cell-based or functional assay
[2] = molecular target: human CCR8 (human) (UniProt P51685); assay: flow cytometry on CHOK1-hCCR8 cells
[3] = molecular target: human CCR8 (human) (UniProt P51685); assay: flow cytometry on HuT78 cells (endogenous CCR8)
[4] = molecular target: human CCR8 (human) (UniProt P51685); assay: flow cytometry on 293F-hCCR8 cells
[5] = molecular target: human CCR8 (human) (UniProt P51685); assay: flow cytometry on 293F-hCCR8 cells; remark: listed apart in the source
[6] = molecular target: human CCR8 (human) (UniProt P51685); assay: flow cytometry on 293F-hCCR8 cells; remark: listed apart in the source
[7] = molecular target: cynomolgus CCR8 (cynomolgus monkey); assay: flow cytometry on 293T-cynoCCR8 cells
[8] = molecular target: cynomolgus CCR8 (cynomolgus monkey); assay: flow cytometry on 293T-cynoCCR8 cells; remark: listed apart in the source
[9] = molecular target: human CCR8 (human) (UniProt P51685); assay: flow cytometry, competition with 10 nM AF647-human CCL1 on 293F-hCCR8 cells
[10] = molecular target: human CCR8 (human) (UniProt P51685); assay: as above; remark: listed apart in the source
[11] = molecular target: human CCR8 (human) (UniProt P51685); assay: as above; remark: listed apart in the source

human CCR8 (human), sequence (P51685 whole entry): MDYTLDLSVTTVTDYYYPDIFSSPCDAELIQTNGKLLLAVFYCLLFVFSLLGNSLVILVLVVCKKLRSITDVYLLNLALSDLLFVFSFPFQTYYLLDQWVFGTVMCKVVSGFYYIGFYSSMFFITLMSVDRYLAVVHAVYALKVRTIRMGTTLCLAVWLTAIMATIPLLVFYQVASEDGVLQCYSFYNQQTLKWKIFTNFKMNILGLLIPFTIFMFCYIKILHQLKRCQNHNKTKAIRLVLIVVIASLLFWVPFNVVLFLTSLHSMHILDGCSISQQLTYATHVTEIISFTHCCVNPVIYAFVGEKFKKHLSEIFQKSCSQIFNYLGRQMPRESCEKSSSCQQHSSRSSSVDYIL

EC50 of ADCC effect (lysis%) by human PBMCs on CHOK1-hCCR8 cells [1]: 0.00238 µg/mL
EC50 of activation of Jurkat-human FcγRIIIa(158V)-NFAT with 293F-hCCR8 target cells [1]: 0.0131 µg/mL
EC50 of activation of Jurkat-human FcγRIIIa(158V)-NFAT with CHOK1-hCCR8 target cells [1]: 0.0265 µg/mL
EC50 [2]: 0.0356 µg/mL
EC50 [3]: 0.0364 µg/mL
B1: B16_hIgG1 (antibody, from another filing, V domains shown)
VH: EVQLVESGGGLVQPGGSLKLSCAASGFTFNTYAMNWVRQASGKGLEWVGRIRSKSNNYATYYADSVKDRFTISRDDSKNTAYLQMNSLKTEDTAVYYCVRGLLRYRFFDVWGQGTTVTVSS
VL: DIVMTQSPLSLPVTPGEPASISCRSSKSLLHSNGNTYLYWFLQKPGQSPQLLIYRMSNLASGVPDRFSGSGSGTDFTLKISRVEAEDVGVYYCMQHLEYPFTFGGGTKVEIKR

EC50 of activation of Jurkat-human FcγRIIIa(158V)-NFAT with 293F-hCCR8 target cells [1]: 0.855 µg/mL
B2: 559E1B10_hzH0L0_hIgG1 (antibody, V domains shown)
VH: QVQLVQSGAEVKKPGASVKVSCKASGYTFTDYYVNWVRQAPGQGLEWMGVINPHNGDTRYNQKFKGRVTMTRDTSTSTVYMELSSLRSEDTAVYYCASWLRRGYYFDSWGQGTTVTVSS
VL: EIVLTQSPATLSLSPGERATLSCRASQSISDYLHWYQQKPGQAPRLLIYYVSQSISGIPARFSGSGSGTDFTLTISSLEPEDFAVYYCQNGHSFPLTFGGGTKVEIKR

EC50 of activation of Jurkat-human FcγRIIIa(158V)-NFAT with 293F-hCCR8 target cells [1]: 0.706 µg/mL
B3: 559E1B10_hzH2L0_hIgG1 (antibody, V domains shown)
VH: QVQLVQSGAEVKKPGASVKVSCKASGYTFTDYYVNWVRQAPGQGLEWIGVINPHNGDTRYNQKFKGRATLTVDKSTSTVYMELSSLRSEDTAVYYCASWLRRGYYFDSWGQGTTVTVSS
VL: EIVLTQSPATLSLSPGERATLSCRASQSISDYLHWYQQKPGQAPRLLIYYVSQSISGIPARFSGSGSGTDFTLTISSLEPEDFAVYYCQNGHSFPLTFGGGTKVEIKR

EC50 of activation of Jurkat-human FcγRIIIa(158V)-NFAT with 293F-hCCR8 target cells [1]: 1.69 µg/mL
B4: 559E1B10_hzH1L0_hIgG1 (antibody, V domains shown)
VH: QVQLVQSGAEVKKPGASVKVSCKASGYTFTDYYVNWVRQAPGQGLEWMGVINPHNGDTRYNQKFKGRVTMTVDKSTSTVYMELSSLRSEDTAVYYCASWLRRGYYFDSWGQGTTVTVSS
VL: EIVLTQSPATLSLSPGERATLSCRASQSISDYLHWYQQKPGQAPRLLIYYVSQSISGIPARFSGSGSGTDFTLTISSLEPEDFAVYYCQNGHSFPLTFGGGTKVEIKR

EC50 of activation of Jurkat-human FcγRIIIa(158V)-NFAT with CHOK1-hCCR8 target cells [1]: 0.0141 µg/mL
B5: 4A19_hIgG1 (antibody, from another filing, V domains shown)
VH: QVQLVQSGAEVKKPGASVKVSCKASGYTFTDSEMHWVRQATGQGLEWMGAIQPETGGTAYNQKFKARVTMTRDTSISTAYMELSSLRSEDTAVYYCARRRRNFDYWGQGTLVTVSS
VL: DIVMTQTPLSLSVTPGQPASISCRSSQSLFHSSGNTYLHWYLQKPGQPPQLLIYKVSNRFSGVPDRFSGSGSGTDFTLKISRVEAEDVGVYYCSQSTHVPFTFGQGTKLEIKR

IC50 of blockade of CCL1-induced β-arrestin recruitment [1]: 2.36 µg/mL
IC50 of blockade of CCL1-induced β-arrestin recruitment (Tango-H CCR8-CHO-K1 cells) [1]: 1.29 µg/mL
EC50 [4]: 0.206 µg/mL
EC50 [5]: 0.153 µg/mL
EC50 [6]: 0.156 µg/mL
EC50 [2]: 0.0788 µg/mL
EC50 [7]: 15.3 µg/mL
EC50 [8]: 14.6 µg/mL
EC50 [3]: 0.0763 µg/mL
IC50 [9]: 0.0943 µg/mL
IC50 [10]: 0.0705 µg/mL
IC50 [11]: 0.0965 µg/mL
B6: anti-human CCR8 433H (antibody, from another filing, V domains shown)
VH: EVQLVETGGGLVQPKGSLRLSCAASGFPFNTFAMNWVRQAPGKGLEWLARIRSKSNNYATYYADSVKDRFTISRDDSRRMLYLLMNNVKFEDTAIYYCVRGKENNYGYAMDYWGQGTSVTVSS
VL: DIVMTQAAPSVPVTPGESVSISCRSSQSLLHSNGNTYLYWFLQRPGQSPQLLIYRMSNLASGVPDRFSGSGSGTAFTLRISRVEAEDVGVYYCMQHLEYPFTFGIGTKLELKR
